Assay results reported in the supplement of paper PMC9112550, “Optimization of the antimicrobial peptide Bac7 by deep mutational scanning” (BMC Biology, 2022).

System: Escherichia coli TOP10
Assay: shrunken log2 fold change of peptide-encoding DNA abundance (4.5 h post-induction vs induction); higher = less antimicrobial activity (less host growth inhibition)
Details: time post-induction: 4.5 h; library: site-saturation at positions 5, 18, 19, 20
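Further: peptides expressed intracellularly from a pBAD plasmid library in pooled LB shake-flask culture, induced with 0.3% L-arabinose, DNA abundance read by NGS, three biological replicates, DESeq2 with apeglm shrinkage.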

| Sequence | shrunken log2 fold change |
| --- | --- |
| RRIRFRPPRLPRPRPRPKHNPRP | -0.483 |
| RRIRSRPPRLPRPRPRPVWFPRP | -0.121 |
| RRIRHRPPRLPRPRPRPLQGPRP | 0.00978 |
| RRIRTRPPRLPRPRPRPGSVPRP | -0.179 |
| RRIRGRPPRLPRPRPRPDVKPRP | 0.356 |
| RRIRMRPPRLPRPRPRPQCLPRP | -0.108 |
| RRIRNRPPRLPRPRPRPHEEPRP | -0.0188 |
| RRIRWRPPRLPRPRPRPMHPPRP | 0.224 |
| RRIRNRPPRLPRPRPRPGFIPRP | 0.0474 |
| RRIRGRPPRLPRPRPRPFWRPRP | 0.297 |
| RRIRTRPPRLPRPRPRPRGTPRP | 0.197 |
| RRIRKRPPRLPRPRPRPQPCPRP | 0.192 |
| RRIRDRPPRLPRPRPRPKNPPRP | -0.128 |
| RRIRWRPPRLPRPRPRPYVPPRP | -0.837 |
| RRIRTRPPRLPRPRPRPGRDPRP | -0.0751 |
| RRIRRRPPRLPRPRPRPKEDPRP | 0.196 |
| RRIRFRPPRLPRPRPRPIPQPRP | 0.132 |
| RRIRSRPPRLPRPRPRPQDEPRP | -0.101 |
| RRIRNRPPRLPRPRPRPSEVPRP | -0.0684 |
| RRIRERPPRLPRPRPRPSGQPRP | -0.148 |
| RRIRKRPPRLPRPRPRPCHRPRP | 0.00781 |
| RRIRIRPPRLPRPRPRPRKEPRP | 0.00489 |
| RRIRNRPPRLPRPRPRPNMMPRP | -0.25 |
| RRIRPRPPRLPRPRPRPENVPRP | -0.2 |
| RRIRIRPPRLPRPRPRPTLVPRP | 0.0386 |

| Sequence | shrunken log2 fold change |
| --- | --- |
| RRIRSRPPRLPRPRPRPDEAPRP | -0.104 |
| RRIRERPPRLPRPRPRPNRLPRP | -0.0671 |
| RRIRMRPPRLPRPRPRPTHDPRP | 0.81 |
| RRIRDRPPRLPRPRPRPNMMPRP | 0.0387 |
| RRIRQRPPRLPRPRPRPPYSPRP | -0.224 |
| RRIRVRPPRLPRPRPRPHTCPRP | -0.345 |
| RRIRERPPRLPRPRPRPQIFPRP | -0.0392 |
| RRIRPRPPRLPRPRPRPQNYPRP | -0.395 |
| RRIRWRPPRLPRPRPRPPVWPRP | 0.478 |
| RRIRLRPPRLPRPRPRPMVKPRP | -0.147 |
| RRIRWRPPRLPRPRPRPDKDPRP | -0.365 |
| RRIRARPPRLPRPRPRPTSSPRP | 0.289 |
| RRIRYRPPRLPRPRPRPTDAPRP | -0.0292 |
| RRIRRRPPRLPRPRPRPGYKPRP | -0.0679 |
| RRIRHRPPRLPRPRPRPHSRPRP | 0.0183 |
| RRIRTRPPRLPRPRPRPCEDPRP | -0.0385 |
| RRIRIRPPRLPRPRPRPEFDPRP | 0.0326 |
| RRIRSRPPRLPRPRPRPQDQPRP | -0.0695 |
| RRIRKRPPRLPRPRPRPSKNPRP | 0.219 |
| RRIRQRPPRLPRPRPRPMLRPRP | -0.138 |
| RRIRYRPPRLPRPRPRPRRLPRP | -0.385 |
| RRIRGRPPRLPRPRPRPTIRPRP | 0.432 |
| RRIRFRPPRLPRPRPRPPVYPRP | -0.124 |
| RRIRPRPPRLPRPRPRPWMTPRP | 0.0158 |
| RRIRARPPRLPRPRPRPYPTPRP | -0.0691 |

| Sequence | shrunken log2 fold change |
| --- | --- |
| RRIRIRPPRLPRPRPRPCCPPRP | -0.168 |
| RRIRTRPPRLPRPRPRPMGWPRP | 0.293 |
| RRIRWRPPRLPRPRPRPPVCPRP | 0.15 |
| RRIRMRPPRLPRPRPRPLTHPRP | 0.0406 |
| RRIRRRPPRLPRPRPRPLDWPRP | 0.297 |
| RRIRNRPPRLPRPRPRPNNQPRP | -0.703 |
| RRIRQRPPRLPRPRPRPRPLPRP | 0.382 |
| RRIRCRPPRLPRPRPRPREFPRP | 0.339 |
| RRIRDRPPRLPRPRPRPAMNPRP | 0.139 |
| RRIRNRPPRLPRPRPRPNFCPRP | -0.0258 |
| RRIRFRPPRLPRPRPRPWCVPRP | -0.384 |
| RRIRFRPPRLPRPRPRPCDTPRP | -0.09 |
| RRIRMRPPRLPRPRPRPPPLPRP | 1.58 |
| RRIRCRPPRLPRPRPRPMSCPRP | -0.0327 |
| RRIRKRPPRLPRPRPRPQKMPRP | 0.0795 |
| RRIRKRPPRLPRPRPRPKALPRP | 1.8 |
| RRIRDRPPRLPRPRPRPFVPPRP | -0.0913 |
| RRIRVRPPRLPRPRPRPDAKPRP | 0.0516 |
| RRIRVRPPRLPRPRPRPEYKPRP | -0.501 |
| RRIRCRPPRLPRPRPRPLKTPRP | -0.0197 |
| RRIRPRPPRLPRPRPRPSASPRP | 2.33 |
| RRIRNRPPRLPRPRPRPIDQPRP | -0.058 |
| RRIRERPPRLPRPRPRPEGGPRP | 0.361 |
| RRIRFRPPRLPRPRPRPILIPRP | -0.194 |
| RRIRTRPPRLPRPRPRPAVRPRP | 0.203 |

| Sequence | shrunken log2 fold change |
| --- | --- |
| RRIRLRPPRLPRPRPRPGKWPRP | 0.121 |
| RRIRQRPPRLPRPRPRPHDQPRP | 0.00277 |
| RRIRQRPPRLPRPRPRPNSHPRP | -0.191 |
| RRIRCRPPRLPRPRPRPMVYPRP | -0.187 |
| RRIRCRPPRLPRPRPRPQCFPRP | -0.187 |
| RRIRRRPPRLPRPRPRPDRMPRP | -0.00208 |
| RRIRLRPPRLPRPRPRPQVTPRP | 0.0952 |
| RRIRIRPPRLPRPRPRPCQFPRP | -0.395 |
| RRIRWRPPRLPRPRPRPRKYPRP | 0.0119 |
| RRIRFRPPRLPRPRPRPNIRPRP | -0.184 |
| RRIRKRPPRLPRPRPRPVYGPRP | -0.0742 |
| RRIRIRPPRLPRPRPRPLQKPRP | -0.0683 |
| RRIRARPPRLPRPRPRPCRQPRP | -0.0784 |
| RRIRARPPRLPRPRPRPQFLPRP | -0.265 |
| RRIRRRPPRLPRPRPRPHSTPRP | 0.0894 |
| RRIRGRPPRLPRPRPRPDYGPRP | 0.0184 |
| RRIRKRPPRLPRPRPRPCSAPRP | -0.0728 |
| RRIRSRPPRLPRPRPRPRPVPRP | 1.01 |
| RRIRDRPPRLPRPRPRPAPPPRP | 0.71 |
| RRIRIRPPRLPRPRPRPMKHPRP | -0.224 |
| RRIRCRPPRLPRPRPRPYQVPRP | -0.829 |
| RRIRGRPPRLPRPRPRPEFIPRP | 0.131 |
| RRIRHRPPRLPRPRPRPVEAPRP | 0.0753 |
| RRIRVRPPRLPRPRPRPEGVPRP | 0.907 |
| RRIRRRPPRLPRPRPRPMYCPRP | -0.574 |

| Sequence | shrunken log2 fold change |
| --- | --- |
| RRIRSRPPRLPRPRPRPGIFPRP | 0.201 |
| RRIRCRPPRLPRPRPRPPCYPRP | -0.265 |
| RRIRPRPPRLPRPRPRPYQNPRP | -0.339 |
| RRIRYRPPRLPRPRPRPKERPRP | -0.002 |
| RRIRSRPPRLPRPRPRPYENPRP | -0.229 |
| RRIRLRPPRLPRPRPRPKDEPRP | 0.114 |
| RRIRGRPPRLPRPRPRPGVAPRP | 1.53 |
| RRIRRRPPRLPRPRPRPHWGPRP | 0.291 |
| RRIRMRPPRLPRPRPRPAHNPRP | 0.421 |
| RRIRSRPPRLPRPRPRPQLWPRP | 0.0725 |
| RRIRHRPPRLPRPRPRPIKCPRP | -0.87 |
| RRIRLRPPRLPRPRPRPNIGPRP | -0.00419 |
| RRIRQRPPRLPRPRPRPENNPRP | -0.331 |
| RRIRLRPPRLPRPRPRPTWMPRP | -0.0614 |
| RRIRPRPPRLPRPRPRPNMMPRP | -0.593 |
| RRIRWRPPRLPRPRPRPNDLPRP | 0.0302 |
| RRIRKRPPRLPRPRPRPNCQPRP | -0.263 |
| RRIRTRPPRLPRPRPRPMATPRP | 0.0309 |
| RRIRNRPPRLPRPRPRPDDSPRP | -0.263 |
| RRIRFRPPRLPRPRPRPSRHPRP | -0.162 |
| RRIRKRPPRLPRPRPRPWRPPRP | 0.177 |
| RRIRMRPPRLPRPRPRPWDFPRP | 0.121 |
| RRIRIRPPRLPRPRPRPATQPRP | 0.129 |
| RRIRHRPPRLPRPRPRPYEWPRP | -0.0335 |
| RRIRDRPPRLPRPRPRPETMPRP | 0.0179 |
